“And” between values parts separate entries of the source, which are not always exact repeats. Identical values can stand only once.
How the values were obtained:
[1] = system: CD22 positive Raji and Ramos cells; assay: FACS analysis with <CD22>-<DIG> and DIG-Cy5; format: cell-based; details: 5 μg/ml <CD22>-<DIG>, DIG-Cy5 66.4 nM
Description: For these analyses we used CD22 positive Raji and Ramos cells and the bispecific <CD22>-<DIG> antibody. 3×10^5 cells per well of a 96-well-plate were incubated with 5 μg/ml of the <CD22>-<DIG> antibody in FACS buffer (PBS containing 5% FCS). After washing the cells were incubated with DIG-Cy5 in a final concentration of 66.4 nM. After another washing step cells were analysed with the FACS canto II (BD Biosciences).

[2] = Excitation and emission spectra of Cy5, Dig-Cy5 and complex; format: physicochemical
Excerpt: To evaluate whether digoxygenation of Cy5 alters its fluorescence features, we compared the excitation and emission spectra of Cy5 and compared it with the spectra of the newly generated Dig-Cy5 and with Dig-Cy5 within a complex with bispecific antibodies. […] We conclude that Dig-Cy5 and -complexes can be applied for antibody-mediated targeting and in vivo imaging.

[3] = system: IGF1R expressing H322M tumor xenografts; assay: Near Infrared Fluorescence Imaging (NIRF) in vivo, H322M xenografts; parameters: species or system mice; details: not complexed with antibody; some accumulation in the liver
Description: To analyze if the specific antigen binding functionality of the antibody-complexes can be utilized to specifically deliver imaging reagents to tumor cells, we performed Near Infrared Fluorescence Imaging Studies (NIRF) in vivo. […] These xenografts were either expressing the antigen Her2 (KPL4 cells) or the antigen IGF1R (H322M cells). Subsequently NIRF imaging was performed by using the Maestro system from CRI. Animals were placed in a measuring chamber and the fluorescence was measured over a defined spectral wavelength array, depending on the dye. Spectral information of each pixel of the obtained image was analyzed by a special software which allows to separate different pre-defined spectra, e.g. autofluorescence and the signal of the dye. Theses separated specific signals were quantified by the Maestro software in order to compare different samples.
To analyze whether the <Her2>-<Dig>-Dig-siRNA complexes, and <IGF1R>-<Dig>-Dig-siRNA complexes mediate specific targeting of their payload towards antigen expressing cells not only in cell culture experiments but also in live animals, we made use of the fact that siRNAs can simultaneously be labeled with Dig as well as with fluorescence labels. […] The technology that we've applied for this task is Near Infrared Fluorescence Imaging (NIRF) in vivo. […]

KPL-4 cells = assay: CellTiter Glo Luminescent Cell Viability Assay, doxorubicin; format: cell-based; details: Homo sapiens, KPL4, 48 hours
Description: (§2) Then, cell viability was assessed by applying the CellTiter Glo Luminescent Cell Viability Assay (Promega, Madison, Wis.).

MDA-MB-468 cells = assay: as above; format: cell-based; details: Homo sapiens, 48 hours
Description: as §2
These experiments included an additional breast tumor cell line MDA-MB-468. […] Thereafter, cell viability was assessed by applying the CellTiter Glo Luminescent Cell Viability Assay (Promega, Madison, Wis.).

H322M cells = assay: as above; format: cell-based; details: Homo sapiens, NCI-H322M, 48 hours
Description: as §2

DIG-Myoglobin = assay: SPR binding to mono-digoxygenated protein DIG-myoglobin; details: analyte DIG-Myoglobin; replicate lines; listed as <DIG>hu2
Description: (§1) For that, binding properties of the recombinant <Dig> derivatives were analyzed by surface plasmon resonance (SPR) technology using a Biacore T100 or Biacore 3000 instrument (GE Healthcare Bio-Sciences AB, Uppsala). This system is well established for the study of molecule interactions. It allows a continuous real-time monitoring of ligand/analyte bindings and thus the determination of association rate constants (ka), dissociation rate constants (kd), and equilibrium constants (KD) in various assay settings. SPR-technology is based on the measurement of the refractive index close to the surface of a gold coated biosensor chip. Changes in the refractive index indicate mass changes on the surface caused by the interaction of immobilized ligand with analyte injected in solution. If molecules bind to immobilized ligand on the surface the mass increases, in case of dissociation the mass decreases. To perform the binding studies capturing anti-human IgG antibody was immobilized on the surface of a CM5 biosensor chip using amine-coupling chemistry. Flow cells were activated with a 1:1 mixture of 0.1 M N-hydroxysuccinimide and 0.1 M 3-(N,N-dimethylamino)propyl-N-ethylcarbodiimide at a flow rate of 5 μl/min. […] A reference control flow cell was treated in the same way but with vehicle buffers only instead of the capturing antibody. Surfaces were blocked with an injection of 1 M ethanolamine/HCl pH 8.5. To compare the binding of the humanized protein variants with that of the murine <Dig> IgG from the original hybridoma 19-11, capturing anti-mouse IgG antibody was immobilized on the surface of a CM5 biosensor chip in the same fashion as described above for the anti-human IgG antibody. To evaluate the functionality of the recombinant <Dig> derivatives, binding of the recombinant hu<Dig> modules, incl. (i) humanized IgG, (ii) fusion proteins harboring hu<Dig> scFv or (iii) disulfide-stabilized scFvs was assayed with different digoxygenated antigens The resulting binding affinities were compared to the binding of the murine ‘wildtype’ DIG-IgG from which the recombinant humanized modules were derived.
Another SPR study was performed in which the binding affinity of <DIG>-hu2, IGF1R-DIG and <DIG> M-19-11 was compared in terms of binding to the mono-digoxygenated protein DIG-myoglobin.

Eg5-siRNA-(2×)DIG = assay: SPR (Biacore) binding to bi-digoxygenated siRNA; details: 25° C., read-out: KD, binding of siRNA-(2x)DIG
Description: (§3) For that, binding properties of the recombinant <Dig> derivatives were analyzed by surface plasmon resonance (SPR) technology using a Biacore T100 or Biacore 3000 instrument (GE Healthcare Bio-Sciences AB, Uppsala). […] To perform the binding studies capturing anti-human IgG antibody was immobilized on the surface of a CM5 biosensor chip using amine-coupling chemistry. Flow cells were activated with a 1:1 mixture of 0.1 M N-hydroxysuccinimide and 0.1 M 3-(N,N-dimethylamino)propyl-N-ethylcarbodiimide at a flow rate of 5 μl/min. […] A reference control flow cell was treated in the same way but with vehicle buffers only instead of the capturing antibody. Surfaces were blocked with an injection of 1 M ethanolamine/HCl pH 8.5. […]
(§4) Anti-mouse IgG antibody was immobilized on the surface of a CM5 biosensor chip in the same fashion as described above. […] The samples to be analyzed were diluted in HBS-P (10 mM HEPES, pH 7.4, 150 mM NaCl, 0.005% Surfactant P20) and injected at a flow rate of 5 μl/min. […] Signals were detected at a rate of one signal per second.
(§5) The samples to be analyzed were diluted in HBS-P and injected at a flow rate of 5 μl/min. […]

[4] = SPR (BiaCore) of sequence-optimized anti-Dig modules; format: binding; details: FIG. 46 c, d, read-out: KD of anti-Dig module
Excerpt: Further optimization of the humanized VH and VL sequences of the anti-digoxygenin antibody was applied to generate modules with even higher affinity towards digoxygenin. Based upon the experimentally determined as well as in-silico calculated predicted structures (see above, based upon structure modeling without experimental structure determination), we identified three positions in which alterations might affect affinity. These were located at (Kabat positions) Ser49, Ile57 and Ala60 of the VH domain (FIG. 46). Replacement of the amino acid VHSer49 with Ala, VHIle57 with Ala and of VHAla60 with Pro generated antibody derivatives with sequences that are listed as SEQ ID NO 36 and SEQ ID NO 37. […] The relevance of these positions was thereafter confirmed by inspecting the experimentally determined structure of the dig-binding variable region. The digoxygenin binding module with improved affinity can be applied as hapten-binding entity for various bi- and multispecific antibody derivatives.
For that, binding properties of the recombinant <Dig> derivatives were analyzed by surface plasmon resonance (SPR) technology using a Biacore T100 or Biacore 3000 instrument (GE Healthcare Bio-Sciences AB, Uppsala). This system is well established for the study of molecule interactions. […]

DIG-siRNA2349 = assay: SPR binding to DIG-siRNA2349; details: analyte DIG-siRNA2349; replicate lines; listed as <DIG>hu2
Description: as §1, with “derived. […]” for “derived.”

Eg5-siRNA-DIG = assay: SPR (Biacore) binding to mono-digoxygenated siRNA; details: 25° C.
Description: as §3, §4, §5

Molecule: CCN1c2ccc(S(=O)(=O)O)cc2C(C)(C)C1/C=C/C=C/C=C1\N(CCCCCC(=O)NCCNC(=O)CO[C@H]2CC[C@@]3(C)[C@H](CC[C@@H]4[C@@H]3C[C@@H](O)[C@]3(C)[C@@H](C5=CC(=O)OC5)CC[C@]43O)C2)c2ccc(S(=O)(=O)O)cc2C1(C)C (stereo partly drawn) [Dig-Cy5]
- binding to Raji or Ramos cells (FACS) [1]: hardly any binding
- Emission wavelength (max.) [2]: at 670 nm
- Excitation wavelength [2]: 575-605 nm
- tumor specific fluorescence (NIRF) without antibody [3]: no tumor specific fluorescence

Molecule: COc1cccc2c1C(=O)c1c(O)c3c(c(O)c1C2=O)C[C@@](O)(C(=O)CO)C[C@@H]3O[C@H]1C[C@H](N)[C@H](O)[C@H](C)O1 [doxorubicin, Doxorubicin]
- IC50 (KPL-4 cells): 2600 nM
- IC50 (MDA-MB-468 cells): 17000 nM
- IC50 (H322M cells): 25000 nM

B1: humanized DIG-IgG: recombinant humanized anti-digoxigenin IgG; Seq. ID. NO. 3-6 (antibody, V domains shown)
VH: QVQLVESGGGLVKPGGSLRLSCAASGFTFSDYAMSWIRQAPGKGLEWVSSINIGATYIYYADSVKGRFTISRDNAKNSLYLQMNSLRAEDTAVYYCARPGSPYEYDKAYYSMAYWGQGTTVTVSS
VL: DIQMTQSPSSLSASVGDRVTITCRASQDIKNYLNWYQQKPGKAPKLLIYYSSTLLSGVPSRFSGSGSGTDFTLTISSLQPEDFATYYCQQSITLPPTFGGGTKVEIKR
notes: recombinant humanized anti-digoxigenin IgG; ID; NO; 3-6
- ka (DIG-Myoglobin): 620000 M⁻¹ s⁻¹ and 749000 M⁻¹ s⁻¹
- kd (DIG-Myoglobin): 0.00982 s⁻¹ and 0.00881 s⁻¹
- Kd (Eg5-siRNA-(2×)DIG): 0.008 nM
- Kd [4]: 12 nM
- Kd (DIG-siRNA2349): 14.5 nM and 15.6 nM
- ka (DIG-siRNA2349): 645000 M⁻¹ s⁻¹ and 628000 M⁻¹ s⁻¹
- kd (DIG-siRNA2349): 0.00937 s⁻¹ and 0.0098 s⁻¹
- Kd (Eg5-siRNA-DIG): 12 nM

— US9050375B2, “Bi-specific digoxigenin binding antibodies” (priority 2009, dated 2015)
